Legend:
[1] = tested on: Lactococcus lactis subsp. lactis (strain IL1403); experiment: Antimicrobial spread-plate (CFU) killing assay, fermenting L. lactis; assay type: cell-based; details: human lactoferrin 0.062 µM; fermentative conditions; relative to untreated control
Method: Microbial susceptibility to the peptides was determined in a spread-plate assay as described previously. Briefly, cell suspensions (10^6 cells/mL) in Tris buffer (10 mM Tris-HCl, pH 7.4) were incubated for 90 min at 37 °C with 2-fold serial peptide dilutions. Peptide concentrations ranged from 0 to 2 μM. After incubation, the number of viable cells was determined by plating aliquots (100 μL) in duplicate on plates (SDA for C. albicans, TSA for P. aeruginosa, and M17G agarified medium for L. lactis) that had been dried for 30 min at room temperature in a laminar flow hood. Plates were incubated for 24–48 h at 30 °C (C. albicans and L. lactis) or 24 h at 37 °C (P. aeruginosa). Dilutions yielding 50–200 colonies were counted. Cell viability values, expressed as colony-forming units (CFUs), were calculated relative to the incubation without added peptides and represent the means ± standard deviation (SD) from duplicates of three independent experiments. For inhibition assays, unless otherwise noted, cell suspensions were preincubated (15 min at 37 °C) with the appropriate inhibitor prior to the addition of peptides, but the inhibitor was present throughout the incubation period with the peptide (90 min at 37 °C). Other specific experimental conditions are described as appropriate. […]

C. albicans cells = experiment: Total cellular ATP (BacTiter-Glo); assay type: cell-based, Candida albicans; details: defensins at NPIC, human lactoferrin 5 μM, BM2 peptide 0.25 μM; 10^6 cells/mL; BacTiter-Glo luminescence
Method: Total ATP was measured using the BacTiter-Glo^TM Microbial Cell Viability Assay (Promega Co., Madison, WI, USA) according to the manufacturer’s instructions. […] Aliquots (100 µL) were incubated (90 min at 37 °C) with human defensins (NPICs). Human lactoferrin (5 μM) or BM2 peptide (0.25 μM) was used as positive controls. One hundred microliters of the incubation mixture was transferred to an opaque 96-well plate, mixed with an equal volume of BacTiter-Glo^TM reagent, and incubated for 15 min in the dark. The reagent uses a thermostable luciferase to generate luminescence in an ATP-dependent manner. The emitted luminescence was detected using a Varioskan Flash multimode reader (Thermo Scientific, Waltham, MA, USA) with a 10 s shaking and 1 s integration time. A calibration curve was generated for each experiment with ATP standards ranging from 1 to 1000 nM. All assays were performed at least three times in duplicate.

Pma1p H^+-ATPase = details: Table 2; no reference given
Method: A whole-cell proton transport assay was used to evaluate the possible inhibition of the fungal Pma1p H^+-ATPase by defensins.
To measure proton pumping from Pma1p H^+-ATPase activity, a glucose-induced acid extrusion assay was performed as previously described with modifications. Briefly, cultures of C. albicans cells were grown to mid-log phase in SDB medium and washed twice in 100 mM Tris-HCl (pH 8.0). The cells were then resuspended in 50 mM KCl and maintained for 18 h at 4 °C to reduce metabolic activity to a minimum (starvation conditions). To determine external acidification, starved cells (approximately 10^7 cells/mL) were incubated for 15 min at 37 °C in the presence or absence of the defensins (2 x NPIC). Cells incubated with 20 µM human lactoferrin or 0.5 µM BM2 peptide were used as positive controls. The initial pH of the cell suspension was adjusted to approximately pH 6.8 with HCl, and glucose (final concentration of 2.5 mM) was immediately added to the cell suspension. The pH of the medium was recorded at 5-min intervals for 20 min using a SevenMulti S50-K pH meter (Mettler-Toledo, Greifensee, Switzerland) with a calibrated electrode (InLab 413, Mettler-Toledo) under constant stirring. Each experiment was repeated three times in an independent manner.

[2] = set-up: method as in 19 sources, ref 24; PMID 3290255; doi:10.1172/JCI113527; 24. Lehrer R.I. Ganz T. Szklarek D. Selsted M.E. Modulation of the in vitro candidacidal activity of human neutrophil defensins by target cell metabolism and divalent cations J. Clin. Invest. 1988 81 || [47]; PMID 11083633; doi:10.1128/AAC.44.12.3310-3316.2000; 47. Edgerton M. Koshlukova S.E. Araujo M.W. Patel R.C. Dong J. Bruenn J.A. Salivary histatin 5 and human neutrophil defensin 1 kill Candida albicans via shared pathways Antimicrob. Agents Chemother. 2 ||| ref 20 = [20]; PMID 17074797; doi:10.1128/AAC.00478-06; 20. Vylkova S. Nayyar N. Li W. Edgerton M. Human beta-defensins kill Candida albicans in an energy-dependent and salt-sensitive manner without causing membrane disruption Antimicrob. Agents Chemother. ||| ref 24, 62 (HNP-1); 62, 63 (HNP-4); 20 (hBD-2); 12, 20 (hBD-3); 34, 35, 64 cidal and 65, 66 static (lactoferrin) ||| ref 26 (HNP-1); 12 (HNP-4); 11 (hBD-2, hBD-3); 43, 67 (lactoferrin) ||| ref 14 (HNP-1); 23 (HNP-4); Yes 11, 13 / No 20 (hBD-2); No 20 / Yes 11 (hBD-3); 31, 34, 42 (lactoferrin) ||| ...; details: Table 2, cited from earlier work

B1: human lactoferrin: Recombinant human apo-lactoferrin (hLf), 691 amino acid γ-core protein that inhibits microbial PM H+-ATPases; control (protein, UniProt P02788 20-710, looked up)
Lactotransferrin: GRRRSVQWCAVSQPEATKCFQWQRNMRKVRGPPVSCIKRDSPIQCIQAIAENRADAVTLDGGFIYEAGLAPYKLRPVAAEVYGTERQPRTHYYAVAVVKKGGSFQLNELQGLKSCHTGLRRTAGWNVPIGTLRPFLNWTGPPEPIEAAVARFFSASCVPGADKGQFPNLCRLCAGTGENKCAFSSQEPYFSYSGAFKCLRDGAGDVAFIRESTVFEDLSDEAERDEYELLCPDNTRKPVDKFKDCHLARVPSHAVVARSVNGKEDAIWNLLRQAQEKFGKDKSPKFQLFGSPSGQKDLLFKDSAIGFSRVPPRIDSGLYLGSGYFTAIQNLRKSEEEVAARRARVVWCAVGEQELRKCNQWSGLSEGSVTCSSASTTEDCIALVLKGEADAMSLDGGYVYTAGKCGLVPVLAENYKSQQSSDPDPNCVDRPVEGYLAVAVVRRSDTSLTWNSVKGKKSCHTAVDRTAGWNIPMGLLFNQTGSCKFDEYFSQSCAPGSDPRSNLCALCIGDEQGENKCVPNSNERYYGYTGAFRCLAENAGDVAFVKDVTVLQNTDGNNNEAWAKDLKLADFALLCLDGKRKPVTEARSCHLAMAPNHAVVSRMDKVERLKQVLLHQQAKFGRNGSDCPDKFCLFQSETKNLLFNDNTECLARLHGKTTYEKYLGPQYVAGITNLKKCSTSPLLEACEFLRK
modifications: apo form
notes: control
With B1 the “cell viability of L. lactis” value [1] was 13% ± 5%, the “increase in ATP levels compared to the untreated control” value (C. albicans cells) was ~ 6 fold and the “Inhibition of H^+-extrusion (yeast)” value (Pma1p H^+-ATPase) was “Yes”. The “Cell death inhibitors, intracellular: Azide” value ([2]; 24 (HNP-1), 20 (hBD-2, hBD-3), 34 (lactoferrin)) was “No”, the Antimicrobial range ([2]; Gm+ Gram-positive bacteria, Gm− Gram-negative bacteria, F fungi, V viruses, P protozoa, no reference given) was “Gm +,Gm −,F,V,P” and the “Cell death inhibitors, extracellular: Tok1p inhibitors (TEA)” value [2] was “Yes”. For the same molecule, the “Cell death inhibitors, intracellular: Oligomycin A” value [2] was “Yes”, the “Cell death inhibitors, intracellular: Piericidin A” value [2] was “Yes” and the “Partial K^+-efflux” value [2] was “Yes”. The Membrane permeabilization ([2]; ref 14 (HNP-1), 23 (HNP-4), Yes 11, 13 / No 20 (hBD-2), No 20 / Yes 11 (hBD-3), 31, 34, 42 (lactoferrin)) was “No”, the “Cell death inhibitors, extracellular: Ca^2+ or Mg^2+” value ([2]; ref 24 (HNP-1), 20 (hBD-2, hBD-3), 43 (lactoferrin)) was “Yes” and the “Cell death inhibitors, intracellular: CCCP or DNP” value ([2]; ref 24 (HNP-1), 34 (lactoferrin)) was “Yes”. For the same molecule, the “Cell death inhibitors, extracellular: Anoxia” value ([2]; ref 24 (HNP-1), 34, 35 (lactoferrin)) was “Yes”, the Membrane depolarization ([2]; ref 26 (HNP-1), 12 (HNP-4), 11 (hBD-2, hBD-3), 43, 67 (lactoferrin)) was “Yes” and the ATP increment ([2]; ref 47 (HNP-1), 35 (lactoferrin)) was “Yes”. The “Cell death inhibitors, extracellular: K^+ or Na^+” value ([2]; ref 68 (HNP-1), 69 (HNP-4), 20 (hBD-2), No 11, 12 / Yes 20 (hBD-3), 31, 36, 43 (lactoferrin)) was “Yes”.

Reference: publication PMC11242853, “The Antimicrobial Activity of Human Defensins at Physiological Non-Permeabilizing Concentrations Is Caused by the Inhibition of the Plasma Membrane H^+-ATPases” (International Journal of Molecular Sciences, 2024)
